Tests used:
[1] = biological target: Anti-TRAP (AT), mature deformylated form, trimer AT3 (assembly unit) (UniProt O31466+O31466); assay: Sedimentation velocity analytical ultracentrifugation (interference optics, 50,000 rpm); conditions: pH 8; 25 °C; 100 mM NaCl plus 50 mM sodium phosphate; 50 mM sodium phosphate at pH 7, 7.25, 7.5 and 8 (Fig. 4 caption also lists pH 7.75)
[2] = biological target: N-terminal formylmethionine Anti-TRAP (fAT) of Bacillus subtilis (Bacillus subtilis); assay: SAXS; fAT at 1, 2, 3.3, 5 and 10 mg/mL in 50 mM sodium phosphate pH 8, 100 mM NaCl, 200 µM ZnCl2, 1 mM TCEP; SIBYLS beamline; deconvolution into trimer and dodecamer
[3] = biological target: N-terminal formylmethionine Anti-TRAP (fAT) of Bacillus subtilis (Bacillus subtilis); assay: NMR spectra (1H-15N HSQC); 3 mM fAT in 20 mM d11-Tris pH 7.5, 20 mM β-mercaptoethanol, 1 mM ZnCl2; also a pH series 6.5 to 8.0 at 25 °C; step looked at for non-binding: trimers to dodecamer
[4] = biological target: N-terminal formylmethionine Anti-TRAP (fAT) of Bacillus subtilis (Bacillus subtilis); assay: NMR solution structure; fAT3, data at 55 °C; NOEs, torsion angles, RDCs, three-fold symmetry and SAXS restraints; homo-trimer
[5] = biological target: Bacillus subtilis Anti-TRAP protein (AT), mature (deformylated) (Bacillus subtilis); assay: AUC; sedimentation velocity, interference optics, 25 °C, 50,000 rpm; 50 mM sodium phosphate, 100 mM NaCl, 0.5 mM tryptophan, 0.02 % NaN3, pH 7 to 8; 65-500 µM AT monomer; global fit in SEDPHAT to a three-state model, 4 AT3 to 2 AT6 to AT12; apparent rate constants, KD from their ratio
[6] = biological target: N-formylmethionine Anti-TRAP (fAT), trimer fAT3 none (N-terminal formylation of Met1) (UniProt O31466); assay: Small-angle X-ray scattering (SIBYLS beamline, ALS); conditions: pH 8, 100 mM NaCl, 50 mM sodium-phosphate

Question: “Anti-TRAP (AT), mature deformylated form, trimer AT3 (assembly unit)” was tested. Which “equilibrium (dissociation) constant, step 2 (2 AT6 <-> AT12)” value [1] did it give?
Answer: Its value is 0.05 to 50 µM (upper end of range).

Question: Which results are given for “N-terminal formylmethionine Anti-TRAP (fAT) of Bacillus subtilis (natural protein)”?
Answer: percent dodecamer [2]: < 3%; stoichiometry N [3]: 3; stoichiometry N [4]: 3

Question: How did the KD of the first step (two AT3 to AT6) [5] turn out when “Bacillus subtilis Anti-TRAP protein (AT), mature (deformylated) (natural protein)” was run?
Answer: Its KD of the first step (two AT3 to AT6) is 20 to 90 µM.

Question: And the stoichiometry N [5]?
Answer: The stoichiometry N was 6.

Question: “N-formylmethionine Anti-TRAP (fAT), trimer fAT3 none (N-terminal formylation of Met1)” was tested. Which “fraction of dodecamer in fAT by SAXS deconvolution” value [6] did it give?
Answer: Its value is under 3% at 10 mg/mL.
